Experimental data published in the DeepSol protein solubility set.

assay: soluble on expression in E. coli; label from the status in PepcDB or PDB records

Row | Sequence | soluble on expression in E. coli
1 | GHMQTQGLAKDAWEIPRESLRLEVKLGQGCFGEVWMGTWNGTTRVAIKTLKPGTMSPEAFLQEAQVMKKLRHEKLVQLYAVVSEEPIYIVTEYMSKGCLLDFLKGEMGKYLRLPQLVDMAAQIASGMAYVERMNYVHRDLRAANILVGENLVCKVADFGLARLIEDNEYTARQGAKFPIKWTAPEAALYGRFTIKSDVWSFGILLTELTTKGRVPYPGMVNREVLDQVERGYRMPCPPECPESLHDLMCQCWRKDPEERPTFEYLQAFLEDYFTSTEPQYQPGENL | soluble
2 | MTKIMIIGANGGIAKKLTQRLLAETDDELVLFLRRAERLAQYREQPRVTLIDGNVLDTDELATAMAPVDIVYSNVGGTDLAAQTKSILAAMARTQRQRLIFISALGAHHEVPGKFGAWNEQAIADFLPGFREAARLLSASELVYTEIRPAWLTDVAEIDYELTTGAEPFKGTEVSRASVADLVFKLMAHPENYQRVSLGVDEPGTAGDRPSWLLEHHHHHH | not soluble
3 | MRVLGIETSCDETGIAVYDDKAGLLANQLYSQVKLHADYGGVVPELASRDHVRKTVPLIQAALKEANLSAKDIDAVAYTAGPGLVGALLVGATIGRALAFAWGVPAVPVHHMEGHLLAPMLEENAPEFPFVALLVSGGHTQLISVTGIGEYLLLGESVDDAAGEAFDKTAKLLGLDYPGGPMLSRMAQQGTVGRFTFPRPMTDRPGLDFSFSGLKTFAANTIRANGDDDQTRADIARAFEDAVVDTLAIKSKRALDQTGFKRLVIAGGVSANQTLRLKLADMMQKRGGEVFYARPEFCTDNGAMIAYAGMVRLRSNLNSELSVSVRPRWPLSELPKV | not soluble
4 | MGSDKIHHHHHHMAKYEQLAQELKTRIAQGVWQAGDKLPSLRQTVADSGLSLMTVLNAYQLLESQGVISAQAKSGYLVAPKPELIARQGEAFRYPERQKPIYLSDSVDINEFVFNVLQASKQADIVPFGSGFPDPSLFPQQALARSLVKVTRHMSPSFAADNLPPGNAGLRKAISQRYAKLGMSISPDEIIITSGAMEALNLSLATLTQAGDWVVIESPTFYGAMQAIERLKLKAIAVATDPQQGIDLEALAEVLKTYPVKACWLMSQHQNPLGCSLSDTKKQALYQLLNEHKVSLIEDDVYQELYVDSSAPRSVKAFDTEGRVLHCGSFSKSLIAGYRVGWVAAGCHAPQLQRLQVMSTLSTSAPMQLAIADFIQSAQYERHLKQLRKKLASRKLAMYQLLCAHLPESVGVNFAQGGYFLWLALPAHMDATQIYYQAIERGISIAPGNLFSNQVEFRHFMRLNASYECSSEIVSAVMVLAELIRNYSRRS | not soluble
5 | SKAQEKGEAISLAFKGVKAEFLKRPEADVHFVCNDGHVIDEMLDHTIATGERVNRDVKIIALCPSLHGQEPMAEFALTLSIKKAAQHTKKAA | not soluble
6 | MGSDKIHHHHHHDDDNTANPAEEVVKASKKHDTAILLCTFGSTFKESIKTYDATLADFQNAFPDADIYLSFTSRTCVNRVEAETGIARYQPDLWLQALGNAGYKKVAVQSLHIIPGEEYLSLMNTDVKKKFMIESFPSVQVVKSPCLVYNEEDVEAVAKVLYSHYSDKLADNKNILLLMGHGNPDKNYNANTKYTETEEAMQALAANKNVFVGTVDYGDMLFWPEEGEPNEECVYSKLTKYCEDHNLKPEEITISLAPFMSIAGDHAHNDLWGIEEGDDFSAAAPNADACWRLKLLKMGFKIDTKESHNGSLENCKIIGLGDYDAVRQIWVNHLKALYNDAEAWETGEDYQ | not soluble
7 | MGSDKIHHHHHHMPTIHLIDGEKGGVGKSLVARTMIQYCLDNNMPFVPVETDRSNPDVAGVYKGICQYAVFTEDERHADKADKIFEIAMNKTVIANLAAQSHRAVKGWIEKNHLIELGESQGVDFCKWFVSTGGYDSLNLFKQSVNSYGGKVPHILVKNLGLCDDWEHVNSDATIQEVVKKYNVKAIDFPKLAYKERNIIDQHRLTFADAREYKEFGIISKQRVVNFLKLAYASFETVGIWYEEVK | not soluble
8 | MSIAEFAYKEKPETLVLFDVDGTLTPARLTVSEEVRKTLAKLRNKCCIGFVGGSDLSKQLEQLGPNVLDEFDYSFSENGLTAYRLGKELASQSFINWLGEEKYNKLAVFILRYLSEIDLPKRRGTFLEFRNGMINVSPIGRNASTEERNEFERYDKEHQIRAKFVEALKKEFPDYGLTFSIGGQISFDVFPAGWDKTYCLQHVEKDGFKEIHFFGDKTMVGGNDYEIFVDERTIGHSVQSPDDTVKILTELFNL | soluble
9 | MAGDPNSMNLKQSIEEIINQPEYEPMSVSDFQDALGLSSADSFRDLIKVLVELEQSGLIERTKTDRYQKKHSSKGHSKLIKGTLSQNKKGFAFLRPEDEDMEDIFIPPTKINRALDGDTVIVEIHQSKGEHKGKIEGEVKSIEKHSVTQVVGTYSEARHFGFVIPDDKRIMQDIFIPKGQSLGAVDGHKVLVQITKYADGSDNPEGHISAILGHKNDPGVDILSIIYQHGIEIEFPDEVLQEAEAVPDHIENTEIKGRHDLRDELTITIDGADAKDLDDAISVKKLANGNTQLTVSIADVSYYVTEGSALDKEAYDRATSVYLVDRVIPMIPHRLSNGICSLNPNVDRLTLSCRMEIDASGRVVKHEIFDSVIHSDYRMTYDAVNQIITEKDPNIREQYKEITPMLDLAQDLSNRLIQMRKRRGEIDFDINEAKVLVNEDGIPTDVQLRQRGEGERLIESFMLIANETVAEHFSKLDVPFIYRVHEQPKSDRLRQFFDFITNFGIMIKGTGEDIHPTTLQKVQEEVEGRPEQMVISTMMLRSMQQAHYDDVNLGHFGLSAEYYTHFTSPIRRYPDLTVHRLIRKYLIEKSMDNKEVKRWEDKLPELAEHTSKRERRAIEAERDTDELKKAEYMIQHIGDEFEGIVSSVANFGMFIELPNTIEGMVHIANMTDDYYRFEERQMALIGERQAKVFRIGDTVKVKVTHVDVDERLIDFQIVGMPLPKNDRSQRPARGKTIQAKTRGKSLDKSKSDDKGRKKKGSQRKGKNERKNDKSGNSKHKPFYKDKSVKKKARRKKKLEHHHHHH | soluble
10 | MSAQTDPGYFFMPNHIILIGASEQPYSLGERVLSNLLSTPFQGKITPVNPRHHTIAGLPAYTSLNKIPGNADLIIAVTLPDSYDTLFKTCRKKQLRHIILIQDWDNLSAAELHTAETAIRKHHGNGLNITACTTAGIQLPSLGLNISTQDGYAAGHTAILTGNAAVSRQIDNILNKLRQGTSRHISLHPGISPITSADWLNRFGHSLHTKTAVLHHNPEEDQRKLFSAIRQFTRHTPLILHITCRTTETDRAVLHCLARHCNFLVSFNADDLEAALRAQLSDLPPLSRLDILSDTPAEWLHAHAPKNLTLHFPNLPHHIRNGHLTGTPTPSICHDIASRQLAHPDTQAVLTILSPSGHEDYKKTARALIRLSEQTAKPLLVSSPFSDGITHFDTPTQAIRTLSYRNTAAALKQAQLDIAPPQPCRLKTPQPQNIKKALAAANPSLLAEALHLPPYRHTTHNAVQFQFDSHPLYGDILTARCNGQTTAVLPPFTTLDSRHLARFAELDGTQTLDQFLHTLTVIPEYRQHILGITLNLNGGQYSSDFLLKTPETHDTPKRKNTGKAAQTLEHAAAKMQSAAAYLKHKNPTAAEFLRHTSEAAAELLGSKTETGAAVPNVLAPYPAAYPKTLSLRNNTTVTITPILPEDAEAKQQFVRSLGPEARYTRFMTHTNELPAATLARLCNPDYHCEAAWTAKDADSNIVAVVRHSRLNRNECEFGITLAEHMRGSGLAQKMMELIIQTAAQQGYRTMSADILKTNTPMIKLAEKSGFTLKESDTEKNLYRAYLNLAADKTTEKTNKNLRTDHKIT | not soluble
11 | MGSDKIHHHHHHMSVLYDTIGIDYANLRKPDLRIAAQIDAALGDAQSVLNVGAGAGSYEPAGRAVTALEPSAEMIAQRPEGTAPVVQGPAEDLPFADNSFDAAMAVLTIHHWSDKARGLAEMRRVARNRAVLLTYDPAFRGQWQTEYWPGLIGLDDGAMPPMAFFEEHLGPVDTQPVLVPHDCSDGFLYAYWRRPQAYLDPRIRKGSSGFWMIDGVEEGAQRLQADLASGAWAARHAALLERENADMGYRLVIADLV | not soluble
12 | MSLKRVLAVQRISRDTEASSALTRQDEALTRAIRQGTYREVGRVVDATVSGAVHLDQRPSLRRWLAEPLVHEWDVLMVTEQDRITRDDMHWWHFVDWTLKNGKDVEVLDDPTFDIQSEDGRMLAGIKAAQAAKYRKAVQAKQLDRTQFFRENRLWNGGVWPFGYRAEVFSHLGERRKRLTVDPCTSRLVREAYDRLVHGEGTVYAVARDWNLRGVPSARDHQRREQNKDLPEQEHRPEKGTRWSVTPLRNILRSPALMGVMMHRSEPVLDAEGQPVVWAEPVLTSEEFAELQEVVLTEQRTAESGPGKRWRTPLLGVVFCMCGRPMYVRHQKNHLADGTTAVLTYYQCRSVSEMNRCEAPSTWRAESLCAVVERDFLDQAGDRTEMKRTYVPGRDHTAAIAELRSALANLTVAIGTATAPAAVAVLTRQMDEHARTITRLEAEPVVHARWKEEPTGAAYREQWRAVKDWESRAALLAKAGVRFFCEGTHKSGSVHMYLPSASQRRVSGVSLSKEAVEVVGIGPLEEEARRYFTDLRRTKGMGPGFWYSREGHHHHHH | not soluble
13 | MKQRDSLDEKRRQLTYFTSCNAGTCQCRGFRPVLNHEDETVERRATRAERENDFAPMTRDLETLGSEEIIECRTCGHSISFHAEPLKYLSQEDLDTYTDQISDLQTCCSELSEIDPSHESLQTLYITMQILLKSLRTLTPVDVPFIGKPNFEPESLSPYILVKKFIASRPVDNAEKQRLAEIGTLFLTEMNHWKLEGFQSLADKLNVPLEQGKYRMMYVRMDYYVNMPAKYVSFKQFQTVDIFGEKFTTTFCNYLINVLNTGNYTPFGLSESDLEENSEDLITFATDLRRYLETEDPQSTSTTNRRKDSISTEDVILKYVKRKKPTDHSESSSPRELSTSPVEEPRRRKKEPSSSAKKSPETEESMALLRSLIRAIKFEGDLDAMEPKTKVEFEALNTEVSRGLSALQEEESGLIEFRVIGNDLDPFQHHEQLVHLVELQNLFGAQLPKMPKEYVTRLIFDSRHQNMVILKRDMGVIGGICFRTFPSRGFVEIVFCAITAMEQVKGYGTHLMNHCKDYMIKNKIYHMLTYADEFAIGYFTKQGFSEKLEINDTVYQGWIKEYEGATLMGCHLHPQISYTKFPDFSKGIQALHCGYKSENGAESRGKVFGGLEHLFRESSPQLLELRKVPGTDSLKMHKKSCYHLDERDDSLDSKIGAILKKLTADKNAWPFASPVDVKEVPEYYDHIKHPIDFKTMQEKLKRKAYTHQHLFIADLNRLFQNCYVFNGAEAVYYKYGYKLNELALKLLKTSFPESSWYPELPEQKPLC | not soluble
14 | MKSSKASEEDLAAATEKMQSMKGKKSQAAAALEAEQAKAEKRLSCLLKARTKLSFRVIRDGIKCHGGIHLKKQSEKAELDISVTNTAINNLPSDADIVITHKDLTDRAKAKLPNATHISVDNFLNSPKYDELIEKLKSNLIEREYCHASTRKGNIKLNQTVSSKEEAIKLAGQTLIDNGYVTEDYISKMFDREETSSTFMGNFIAIPHGTEEAKSEVLHSGISIIQIPEGVEYGEGNTAKVVFGIAGKNNEHLDIL | soluble
15 | MSLASVKEAAAVRPPLNQILFGPPGTGKTYEAIEKALEILDPSFLLQLGDDESNERRRALKRRYDELAKEGLVQFVTFHQSFSYENFVEGLSASSDPDTKQVRYEVEDGVFKELCESARTRLVRRSDDAPLELSGRRIWKLSLGDSITEGHIFEECMEKGLALMGFGNNADFSQCQSREDIQKMFAASGEPLSLGAYPITAIKTFVCQMKLGDLIVVSEGNLKFRAIGEITGDYQLLPRDSDTYSQARPVRWLRGYKPALPYGALMENRFSQMTVYELRAGSIDHDKFRELLKSECIATGADRPHVLIIDEINRGNVSRIFGELITLIEPSKRSGAAEALEVLLPYSKDPFSVPDNVYLIGTMNTADRSLAGLDIALRRRFDFVEMAPRPDKLTGVKVAEIDISAVLETMNRRIEVLLDREHRLGHAYFMSLENSNDLSRLSNIFRQQIIPLLQEYFFEDWQRIAWILNDHRKDERFRFIVPAPYSVDSLFGDTGQVAQDSKAWRMNEEAFHKPQSYLGIVGDGKEGHHHHHH | soluble
